Laboratory results reported in paper PMC2756588.

T1: Pin3, Q06449
T1 sequence (Q06449 53-122, looked up): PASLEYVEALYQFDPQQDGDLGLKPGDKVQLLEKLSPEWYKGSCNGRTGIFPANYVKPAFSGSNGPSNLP

T2: Lsb4, P32793
T2 sequence (P32793 402-468, looked up): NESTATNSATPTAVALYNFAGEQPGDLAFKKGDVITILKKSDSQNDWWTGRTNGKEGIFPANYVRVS

T3: Fus1, P11710
T3 sequence (P11710 432-512, looked up): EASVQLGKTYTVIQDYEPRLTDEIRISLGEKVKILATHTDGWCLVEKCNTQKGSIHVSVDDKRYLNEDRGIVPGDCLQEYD

T4: Sla1-2, P32790
T4 sequence (P32790 60-140, looked up): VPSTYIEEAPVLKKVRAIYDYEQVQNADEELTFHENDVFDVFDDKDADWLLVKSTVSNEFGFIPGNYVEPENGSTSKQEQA

T5: Lsb3, P43603
T5 sequence (P43603 385-451, looked up): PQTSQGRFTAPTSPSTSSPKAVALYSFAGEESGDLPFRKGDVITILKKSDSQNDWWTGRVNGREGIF

T6: Lsb1, P53281
T6 sequence (P53281 45-122, looked up): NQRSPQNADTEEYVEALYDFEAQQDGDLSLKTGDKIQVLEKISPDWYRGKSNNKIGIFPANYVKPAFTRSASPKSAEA

T7: Hse1, P38753
T7 sequence (P38753 208-285, looked up): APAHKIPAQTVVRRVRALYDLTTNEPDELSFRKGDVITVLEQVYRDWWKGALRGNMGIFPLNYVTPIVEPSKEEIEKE

T8: Abp1, P15891
T8 sequence (P15891 535-592, looked up): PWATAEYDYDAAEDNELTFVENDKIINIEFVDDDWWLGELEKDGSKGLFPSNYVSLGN

T9: Nbp2, Q12163
T9 sequence (Q12163 103-180, looked up): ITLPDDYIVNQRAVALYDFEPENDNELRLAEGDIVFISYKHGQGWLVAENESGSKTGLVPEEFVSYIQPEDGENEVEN

T10: Boi1, P38041
T10 sequence (P38041 1-86, looked up): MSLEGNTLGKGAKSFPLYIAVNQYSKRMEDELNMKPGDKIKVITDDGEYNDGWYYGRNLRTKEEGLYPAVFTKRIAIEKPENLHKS

T11: Cyk3, Q07533
T11 sequence (Q07533 1-83, looked up): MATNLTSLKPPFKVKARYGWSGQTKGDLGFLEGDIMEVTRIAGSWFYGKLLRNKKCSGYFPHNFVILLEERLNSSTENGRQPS

T12: Hof1, Q05080
T12 sequence (Q05080 590-669, looked up): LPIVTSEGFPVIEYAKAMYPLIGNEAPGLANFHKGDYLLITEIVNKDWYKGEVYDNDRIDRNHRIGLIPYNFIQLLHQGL

T13: Bbc1, P47068
T13 sequence (P47068 1-78, looked up): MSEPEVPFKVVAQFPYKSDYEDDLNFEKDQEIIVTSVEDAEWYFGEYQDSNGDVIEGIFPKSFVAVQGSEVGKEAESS

T14: Boi2, P39969
T14 sequence (P39969 32-116, looked up): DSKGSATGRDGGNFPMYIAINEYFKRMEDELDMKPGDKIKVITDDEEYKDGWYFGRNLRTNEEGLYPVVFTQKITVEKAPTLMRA

T15: Cdc25, P04821
T15 sequence (P04821 50-136, looked up): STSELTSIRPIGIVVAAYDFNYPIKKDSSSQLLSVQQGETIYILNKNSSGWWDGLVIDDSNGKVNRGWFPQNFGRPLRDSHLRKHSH

T16: Bud14, P27637
T16 sequence (P27637 247-328, looked up): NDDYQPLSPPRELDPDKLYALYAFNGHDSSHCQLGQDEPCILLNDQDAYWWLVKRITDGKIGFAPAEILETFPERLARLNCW

T17: Sla1-3, P32790
T17 sequence (P32790 344-424, looked up): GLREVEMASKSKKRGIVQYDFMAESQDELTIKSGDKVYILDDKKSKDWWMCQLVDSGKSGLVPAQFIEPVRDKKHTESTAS

T18: Myo5, Q04439
T18 sequence (Q04439 1072-1160, looked up): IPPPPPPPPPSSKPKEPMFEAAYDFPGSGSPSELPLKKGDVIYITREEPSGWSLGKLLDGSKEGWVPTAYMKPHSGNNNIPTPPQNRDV

T19: Bzz1-1, P38822
T19 sequence (P38822 478-572, looked up): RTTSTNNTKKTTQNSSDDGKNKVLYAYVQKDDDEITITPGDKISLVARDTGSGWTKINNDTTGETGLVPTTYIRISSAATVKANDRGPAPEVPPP

T20: Pex13, P80667
T20 sequence (P80667 295-386, looked up): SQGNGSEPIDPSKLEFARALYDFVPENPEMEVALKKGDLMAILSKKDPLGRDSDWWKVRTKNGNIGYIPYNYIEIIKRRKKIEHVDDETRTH

T21: Bzz1-2, P38822
T21 sequence (P38822 568-633, looked up): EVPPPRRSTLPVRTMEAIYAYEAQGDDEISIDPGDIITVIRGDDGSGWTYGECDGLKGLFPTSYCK


Tests used:
Test in all cases: SPOT array
[1] = molecular target: T1, Pin3, Q06449; conditions: median of control spots 2171
[2] = molecular target: T2, Lsb4, P32793; conditions: median of control spots 397
[3] = molecular target: Bem1-1, P29366; conditions: median of control spots 4282
Sequence of Bem1-1, P29366 (P29366 55-141): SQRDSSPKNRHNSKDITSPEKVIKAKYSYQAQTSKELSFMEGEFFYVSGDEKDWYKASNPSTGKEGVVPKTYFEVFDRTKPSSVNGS

[4] = molecular target: T3, Fus1, P11710; conditions: median of control spots 1200
[5] = molecular target: T4, Sla1-2, P32790; conditions: median of control spots 712
[6] = molecular target: T5, Lsb3, P43603; conditions: median of control spots 406
[7] = molecular target: T6, Lsb1, P53281; conditions: median of control spots 388
[8] = molecular target: Myo3, P36006; conditions: median of control spots 468
[9] = molecular target: T7, Hse1, P38753; conditions: median of control spots 1727
[10] = molecular target: T8, Abp1, P15891; conditions: median of control spots 935
[11] = molecular target: Rvs167, P39743; conditions: median of control spots 2707
Sequence of Rvs167, P39743 (P39743 419-482): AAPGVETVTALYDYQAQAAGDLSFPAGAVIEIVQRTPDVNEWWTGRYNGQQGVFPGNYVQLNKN

[12] = molecular target: T9, Nbp2, Q12163; conditions: median of control spots 357
[13] = molecular target: T10, Boi1, P38041; conditions: median of control spots 1162
[14] = molecular target: T11, Cyk3, Q07533; conditions: median of control spots 1451
[15] = molecular target: T12, Hof1, Q05080; conditions: median of control spots 4086
[16] = molecular target: T13, Bbc1, P47068; conditions: median of control spots 796
[17] = molecular target: GST; conditions: median of control spots 978
[18] = molecular target: T14, Boi2, P39969; conditions: median of control spots 1161
[19] = molecular target: T15, Cdc25, P04821; conditions: median of control spots 969
[20] = molecular target: Bem1-2, P29366; conditions: median of control spots 4347
Sequence of Bem1-2, P29366 (P29366 139-227): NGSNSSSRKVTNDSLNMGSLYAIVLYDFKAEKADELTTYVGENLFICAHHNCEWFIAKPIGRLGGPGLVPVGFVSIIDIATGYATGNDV

[21] = molecular target: T16, Bud14, P27637; conditions: median of control spots 956
[22] = molecular target: T17, Sla1-3, P32790; conditions: median of control spots 5475
[23] = molecular target: T18, Myo5, Q04439; conditions: median of control spots 471
[24] = molecular target: T19, Bzz1-1, P38822; conditions: median of control spots 4446
[25] = molecular target: T20, Pex13, P80667; conditions: median of control spots 1341
[26] = molecular target: Sho1, P40073; conditions: median of control spots 1148
Sequence of Sho1, P40073 (P40073 287-367): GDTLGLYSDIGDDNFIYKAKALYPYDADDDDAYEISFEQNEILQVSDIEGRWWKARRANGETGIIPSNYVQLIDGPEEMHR

[27] = molecular target: T21, Bzz1-2, P38822; conditions: median of control spots 4538

Binder	SPOT intensity [1]	SPOT intensity [2]	SPOT intensity [3]	SPOT intensity [4]	SPOT intensity [5]	SPOT intensity [6]	SPOT intensity [7]	SPOT intensity [8]	SPOT intensity [9]	SPOT intensity [10]	SPOT intensity [11]	SPOT intensity [12]	SPOT intensity [13]	SPOT intensity [14]	SPOT intensity [15]	SPOT intensity [16]	SPOT intensity [17]	SPOT intensity [18]	SPOT intensity [19]	SPOT intensity [20]	also measured
FIRKRAPTPPAPSRS	26	26	0	13	0	18	1190	35	76	259	4	219	3	2	6	68	0	0	43	800	SPOT intensity [21]: 10; SPOT intensity [22]: 155; SPOT intensity [23]: 4; SPOT intensity [24]: 52; SPOT intensity [25]: 27; SPOT intensity [26]: 90; SPOT intensity [27]: 522
KIRRSSLMIPNPQQF	142	3	0	21	4	14	12	35	1	105	0	0	2	2	0	13	3	1	12	3	SPOT intensity [21]: 5; SPOT intensity [22]: 9; SPOT intensity [23]: 11; SPOT intensity [24]: 1; SPOT intensity [25]: 30; SPOT intensity [26]: 47; SPOT intensity [27]: 0
RVTRKRPREPKSTND	3	10	2	34	2	5	9	19	12	167	0	40	10	4	3	217	2	2	28	0	SPOT intensity [21]: 9; SPOT intensity [22]: 47; SPOT intensity [23]: 3; SPOT intensity [24]: 0; SPOT intensity [25]: 0; SPOT intensity [26]: 173; SPOT intensity [27]: 11
WTQRRGPLVVYAEDN	32	1	0	2	0	0	0	0	1	0	0	0	1	0	3	0	0	0	1	3	SPOT intensity [21]: 0; SPOT intensity [22]: 18; SPOT intensity [23]: 0; SPOT intensity [24]: 0; SPOT intensity [25]: 10; SPOT intensity [26]: 1; SPOT intensity [27]: 0
